The numbers were not newly measured in article PMC7866199, which cites them from elsewhere.

By Kd is commonly meant the equilibrium constant for the complex coming apart.

Data set [1] addresses GRK6A C-terminal PDZ ligand (Homo sapiens) (UniProt P43250).
The target in data set [2] is NPT2A C-terminal 22 aa (Homo sapiens) (UniProt Q06495).
Chain of UniProt Q06495 (Q06495 618-639): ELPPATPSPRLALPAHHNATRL

Chain of UniProt P43250 (P43250 555-576): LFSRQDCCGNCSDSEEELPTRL

On to NHERF1 (from UniProt O14745), for which the equilibrium dissociation constant (Kd) in data set [1] and in data set [2] was 4 µM in each case.
